Changes are numbered by the printed parent chain.
Tests used:
Assay in all cases: EMSA
Conditions in all cases: EMSA: 5 mM Tris-HCl pH 7.5, 0.1 mM EDTA, 5 mM MgCl2, 10 mM KCl, 0.2 mM DTT, 30 C, 30 min, native PAGE in 0.5x TBE; MST: 50 mM PBS pH 7.2-7.4, temperature not …
[1] = system: T1, 6xHis-APR1 F314S F314S (Acinetobacter venetianus RAG-1), ORF:d17a4b85
T1 sequence: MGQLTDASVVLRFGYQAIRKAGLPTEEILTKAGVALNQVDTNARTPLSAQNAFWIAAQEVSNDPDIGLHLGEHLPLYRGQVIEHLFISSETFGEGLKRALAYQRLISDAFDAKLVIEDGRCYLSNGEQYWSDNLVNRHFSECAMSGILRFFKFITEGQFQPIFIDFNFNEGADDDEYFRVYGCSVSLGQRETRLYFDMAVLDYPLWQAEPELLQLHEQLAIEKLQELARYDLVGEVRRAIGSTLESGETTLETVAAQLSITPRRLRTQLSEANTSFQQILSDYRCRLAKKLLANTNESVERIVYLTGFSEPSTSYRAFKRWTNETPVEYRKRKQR

[2] = system: T2, 6xHis-APR1 F318S F318S (Acinetobacter venetianus RAG-1), ORF:d17a4b85
T2 sequence: T1 sequence with S314F, F318S

[3] = system: T3, 6xHis-APR1 T306L T306L (Acinetobacter venetianus RAG-1), ORF:d17a4b85
T3 sequence: T1 sequence with T306L, S314F

[4] = system: T4, 6xHis-APR1 V303E V303E (Acinetobacter venetianus RAG-1), ORF:d17a4b85
T4 sequence: T1 sequence with V303E, S314F

[5] = system: T5, MBP-APR1 L265S L265S (Acinetobacter venetianus RAG-1), ORF:d17a4b85
T5 sequence: T1 sequence with L265S, S314F

**Q.** Which results are given for “AGCCTACCTGATGATCAAATTGGAAAGGCGCAAATTATAGTCAATTTATTTGAAATTTACAAGACGCTCTCTTAGCAAAGCTTGTACAGATGAATTGGAAAAAACTGTCAGACAATCCTCATTTTTTTTTAACAAAAGAAGCAGAATAGTGTTGTCAGTTTGGTCAATCAACGTTAATCTAAAATTATTGTTTATTGTCACAATAACGTATCTACAGGGAAGGGCACTGC (double strand) [apR1 promoter]”?
**A.** binding [1]: no binding; binding [2]: no binding; binding [3]: binds; binding [4]: no binding; binding [5]: no binding
